Measurements as given in the supplement of paper PMC9170038.

test system: K4 kissing-loop RNA reporter; assay: apparent KD of K4 kissing-loop reporter; higher = weaker reporter binding; conditions: Eterna round: R107; input ligand: theophylline 20 uM
Experimental: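 RNA-MaP round R107: designed RNA switches with theophylline, tryptophan, arginine or FMN aptamers are transcribed on-chip within common flanks. They are titrated with a labelled K4 kissing-loop RNA reporter in RNA-MaP buffer (100 mM Tris pH 7.5, 80 mM KCl, 4 mM MgCl2), without ligand or with the indicated ligand. Median apparent KD per design.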
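Further: bound reporter read as fluorescence of individual clusters on recovered sequencing chips by microscopy, with normalized cluster intensities fitted with a binding model.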

“GGUAGCAUGGCGGCCGCCACUCUUCAUUAGUGAUGUUAAUGCCGAGUGCGCUAACUCCGCCAGGAGAGGACCGGGCCAUGCUACC” and “AGAACUGUCUGAGAUACCAGCUAAGGAGUGAUGUUCCUAGCUCCACGAAAGUGGAGCCAUAGCCCUUGGCAGCUCAGACAGUUCA [Omei KL Theo B SS A v6]” are within 1.5-fold of each other in “apparent KD of K4 kissing-loop reporter” value: 407 nM for the first, 584 nM for the second.

Compared with “GCAGUGAUGUUGCACGAGUAGGGUAGAGUGCGAGGACCGGUACGGCCGCCACUCGUAUGGAACUCGCUAAUUUAUGGAAUGGUGA [whbob_SS_tryp_A]”, “UGCAUCGUUGGCAGGCGCACCACACAGUGUAAGGAUAUGAUGUCGUUCAGAAGGUACGCUUGACCGAGUGAUGUUCGGGAGUGCC [theeternabot_sameState_KL_FMN_A_9]” is 3.8-fold lower in “apparent KD of K4 kissing-loop reporter” value: 920 nM for the first, 245 nM for the second.

Going from “GGAGUUACCUGGGAUACCAGUCGGAGUCUCAGAGCACAGAGUGAUGUUCUGGGAUGUUUCGGCCCUUGGCAGCUCUGGGACUCCA [#2 Exclusion - Theophylline B Attempt #14 (HarryS)]” to “AGCGAGAUACUUGUCUAGUAUACUACAGAUACCAGACAAGUACUAGUCCCUUGGCAGCUGUAGAUCGAGUGAUGUUCGAGUCGCU [Theo A SS t1]”, the “apparent KD of K4 kissing-loop reporter” value rises from 265 nM to 430 nM (1.6-fold).

Compared with “UGUAUGUGAUUUGAUACCAGACCAUCUUGUGAGAAAUGAGUGAUGUUUAUUUUGGUUUGGGUCCCUUGGCAGCAAAUCGCAUACU [KL-SSTheoB24]”, “AACAUUUUCAGAAGGAGCGUGAAUUAUUCAUAAUUAUAUUAUACGAGUGAUGUUCGUAUUUCACAGGUAGGUCGCUGAUAUAUUA [JR_SSArginiB_Sub001]” is 3.2-fold lower in “apparent KD of K4 kissing-loop reporter” value: 419 nM for the first, 133 nM for the second.

same assay, conditions: Eterna round: R107; input ligand: tryptophan 2.4 mM

First: AGAGUUAUGCGAGGAUAUGCGGUUAGUACUCAAAGAGUACUAACGCAGAGUGAUGUUCUGUGAAACACAGAAGGCGCAUAACUCA [Omei KL FMN B SS B v1]
Second: AAGGACGGGACUUCCUCGCCGGAUAGAGAUACCAGCCCAGCAAUGGGCCCUUGGCAGCUCACUGACCUCAGUGAUGUUGAGGUUC [Arange]
The “apparent KD of K4 kissing-loop reporter” value of the first is 2.1-fold higher: 441 nM for the first, 210 nM for the second.

Going from “UAGGAGUGAUGUUCCUUUAGCAGGUAGGAAGGAGCGCCCAUUUGGGCAGGUAGGUCGCCUACUGGCCCUGAGUUAAACCUUAGGC [#11 K4 Arginine A Same State]” to “UGGAGUUGACGAAAAGUCAACUCCUGAGAUACCAGUGACGAAAGUCACCCUUGGCAGCUCACUGCCAGUGAUGUUGGAAAUAAAA [#01 K4 Theophylline A Same State]”, the “apparent KD of K4 kissing-loop reporter” value rises from 127 nM to 217 nM (1.7-fold).

Compared with “CGUAGCAGACGAAGGAGCGGCUACCUGAAUCAGGGUGAUGCCUGAGUGAUGUUCAGGUAAAGCCAGGUAGGUCGCGUCUGCUACG [Arg B Ex t9a]”, “UGACUGGACUGAAGGAGCGCUGAACUCCUAGUGAUGUUAGGACAACGAGACAAAGUCUCGCGGCAGGUAGGUCGCAGUCUAGUCU” is 1.6-fold lower in “apparent KD of K4 kissing-loop reporter” value: 210 nM for the first, 131 nM for the second.

Compared with “UGUACCGAGUCAGGAUAUCAUAAAGUUGGAGUGAUGUUCCAAUAACGACUGACAAAGUCGGUCGAUUGAGAAGGGACUUGGUACU [FmnBS 9 #SwitchBubble #StaticStem]”, “AGCUAGUACGCAGGAUAUCGAACAUCAUUUAGUGAGAUCGAGUGAUGUUCGAUCACGUCUUCAGUUCGAGAAGGGCGUACUAGCA [#01 K4 FMN B Same State]” is 5.1-fold higher in “apparent KD of K4 kissing-loop reporter” value: 151 nM for the first, 777 nM for the second.

First: UGAGGAGAUUAUGAUACCAGCAGAGAGAGAGAGGAAGUAUAGUGAUGUUAUAUGAGAUAAUGCCCUUGGCAGCAUAAGAAGAAGG [#20 K4 Theophylline B Same State]
Second: AAGUGAUGUUGUAGUGAUGUUGUGAUGUUGCAGGAUAUAUAGUGAUGUAGAAGGGUAAGUACUGAUUUUUUUUGUGAGUGAUGUU [bbgvzrmullin]
The “apparent KD of K4 kissing-loop reporter” value of the first is 2-fold higher: 140 nM for the first, 71.4 nM for the second.

“GGACGACAGUCGGCCGCCACUCACAGCAGCCAGUGAUGUUGGAUUGUAGCGGAGUGAUGUUUCGCGAGGACCGGGACUGCAGUCC [Same State Tryptophan B GF 14]” and “AAUAUAGUGAUGUUAUAUAAGAAGGAGUUACGAGGACCGGUACGGCCGCCACUCGAAACGAGUGAGGAUUUGGGAGAUUGGGUUC [SSTryptA.L]” are within 1.5-fold of each other in “apparent KD of K4 kissing-loop reporter” value: 199 nM for the first, 283 nM for the second.

“GACUGGUUAACAGAUACCAGCCACAAGCGUUGAGGCGGCGGUAAAGUGAUGUUUUAUAAAGGCCCUUGGCAGCUGACUAGUUCGU [theeternabot_exclusion_KL_Theo_B_28]” and “UGACUGGACUGAAGGAGCGUUGAAGGAGCGUAAGGAGUGAUGUUCCAUACAGGUAGGUCGCAGCAGGUAGGUCGCAGUCUAGUCU [ArgBS 26 #DoubleAptamer #SwitchBubble]” are within 1.5-fold of each other in “apparent KD of K4 kissing-loop reporter” value: 324 nM for the first, 281 nM for the second.

First: AGACCACAAAGUGGUCAGUGUUCGCGGCAGCGAGGACCGGUACGGCCGCCACUCGCGAGUGAUGUUCGCGAGAGCCGCGAACACA [Omei KL Tryp A Exc A v8]
Second: CAUUCAGUGAUGUUGGAAGGCGAGCGGGAUACCAGCGGAGACUCACGCCCUUGGCAGCCCAUAUAUCCCAGGUAGAUAAUAGUUC [Same State - Theophylline A (Freestyle 5)]
The “apparent KD of K4 kissing-loop reporter” value of the first is 2-fold lower: 99.6 nM for the first, 201 nM for the second.

Compared with “GGAACUACGACGGCCGCCACUCUGUAUCCCAACGUUAAGGUCCUAACUGCAAGUGAUGUUUGUGCGAGGACCGGGUCUCCCUUGC [theeternabot_exclusion_KL_Trp_B_30]”, “AUGCGCGCGGCGGCCGCCACUCGCAUGAGAGUGAUGUUCUCACCGUGACCGUAAGGUCGCGGUGUGAGGACCGGGCCGGGCUGCG [#2 Same State - Tryptophan B Attempt #23 (HarryS)]” is 1.8-fold lower in “apparent KD of K4 kissing-loop reporter” value: 217 nM for the first, 118 nM for the second.

Compared with “CUGGGUUGACGAAAAGUCAACAAAAGAGAAGGAGCGCACGAAAGUGCAGGUAGGUCGCUCAUCCAGUGAUGUUGGAUCAUCCAGA [#SwitchBubble 16 #K4Late]”, “UGUCAUUGGUCGGCCGCCACUCCGUAACGAGUGAUGUUCUAAAAGACGGAUCGAAAGAUCUGUCGGAGGACCGGGACCGAUGACU [FiskerMod 7 - Jieux - Same State - Tryptophan B]” is 3.3-fold higher in “apparent KD of K4 kissing-loop reporter” value: 273 nM for the first, 900 nM for the second.

“UGUACCGAGUCAGGAUAUGUCGUCGAAAGACGAAUCCUAGUGAUGUUAGGGAUCUGCGAAAGCAGUGCAGAAGGGACUUGGUACU [FmnBS 26 U20+G67]” and “CUAUGGAAACAUAGUGAUCGGGAAACCGAUACCAGUAUGGAAACAUACCCUUGGCAGCGGAAUGAUCAAACGGAGUGAUGUUCCG [Theophylline A K4 21]” are within 1.5-fold of each other in “apparent KD of K4 kissing-loop reporter” value: 207 nM for the first, 288 nM for the second.

Going from “CCAUCGCUAUUCGAUACCAGCUCCUUAGUGAUGUUAAGGUUUUACCCACUGUAGGUGGGAAGCCCUUGGCAGCGAAUAGUGAUGG [Theophylline B K4 28]” to “GGUAGCAUGGCGGCCGCCACUCUUCAUUAGUGAUGUUAAUGCCGAGUGCGCUAACUCCGCCAGGAGAGGACCGGGCCAUGCUACC”, the “apparent KD of K4 kissing-loop reporter” value falls from 1030 nM to 185 nM (5.6-fold).

“AGAACUGUCUGAGAUACCAGCUAAGGAGUGAUGUUCCUAGCUCCACGAAAGUGGAGCCAUAGCCCUUGGCAGCUCAGACAGUUCA [Omei KL Theo B SS A v6]” and “GCAGUGAUGUUGCACGAGUAGGGUAGAGUGCGAGGACCGGUACGGCCGCCACUCGUAUGGAACUCGCUAAUUUAUGGAAUGGUGA [whbob_SS_tryp_A]” are within 1.5-fold of each other in “apparent KD of K4 kissing-loop reporter” value: 747 nM for the first, 575 nM for the second.

Compared with “UGCAUCGUUGGCAGGCGCACCACACAGUGUAAGGAUAUGAUGUCGUUCAGAAGGUACGCUUGACCGAGUGAUGUUCGGGAGUGCC [theeternabot_sameState_KL_FMN_A_9]”, “GGAGUUACCUGGGAUACCAGUCGGAGUCUCAGAGCACAGAGUGAUGUUCUGGGAUGUUUCGGCCCUUGGCAGCUCUGGGACUCCA [#2 Exclusion - Theophylline B Attempt #14 (HarryS)]” is 1.8-fold higher in “apparent KD of K4 kissing-loop reporter” value: 196 nM for the first, 351 nM for the second.

“AGCGAGAUACUUGUCUAGUAUACUACAGAUACCAGACAAGUACUAGUCCCUUGGCAGCUGUAGAUCGAGUGAUGUUCGAGUCGCU [Theo A SS t1]” and “UGUAUGUGAUUUGAUACCAGACCAUCUUGUGAGAAAUGAGUGAUGUUUAUUUUGGUUUGGGUCCCUUGGCAGCAAAUCGCAUACU [KL-SSTheoB24]” are within 1.5-fold of each other in “apparent KD of K4 kissing-loop reporter” value: 389 nM for the first, 439 nM for the second.

“AACAUUUUCAGAAGGAGCGUGAAUUAUUCAUAAUUAUAUUAUACGAGUGAUGUUCGUAUUUCACAGGUAGGUCGCUGAUAUAUUA [JR_SSArginiB_Sub001]” was tested, and the “apparent KD of K4 kissing-loop reporter” value was 107 nM.
